74 sequences from the supplement of paper PMC12636428 can be followed below.

The data set deals with Saccharomyces cerevisiae. Briefly: transcriptional activation domain activity (GFP:mCherry ratio, weighted mean of sorted bins, harmonized to initial dataset scale) (arbitrary fluorescence ratio units); higher = stronger transcriptional activation. As to conditions: beta-estradiol 1 µM; induction time 4 h. Summed up: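 Yeast diploids with a GFP reporter received barcoded protein tiles, fused to an estradiol-inducible synthetic transcription factor, at the URA3 locus. Cultures were diluted 1:5 into SC holding 1 uM beta-estradiol, incubated 4 hours at 30 °C, sorted into 8 bins on GFP:mCherry ratio, and sequenced for barcodes, with tiles under 50 reads discarded. Activation activity values come from the read-weighted mean of bin median fluorescence, averaged across barcodes and linearly placed on the initial dataset scale.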

In the case of “NTWLLFRQVVDVILLNDFVAYCMFAFSCFRVPEGLSLAVHIMRWVAGIALIAF”, the “transcriptional activation domain activity” value came to 56200.
Next, “NTWLQQLQDELNGSYSLTDNVNTPIDPSLSDLGVTSASPLAGNSPGLPPEEVR”: 92100; “NVLDASSVIARRAVETGGRNVPRGAAGGGAPRNRARGFELEIGNATLLGRRHN”: 29200.
Next, “NVLLLGLLGWLIRLVHNSEPTLVLKKLCSTLVTYFTRQSFRWRRCIKHLVCAF”: 39900; “NVLYSRLSILSSLITLSWFLTAHILEYTSIHTCRFSSPHIWWLTFGILCIMYL”: 51600; “NVQPTANAASANAAAAAAAAASNSYAIPENELLDEDTMNFISSLKNDLSNISN”: 59700.
For “NVRLQVDQCAFVLEHCADATPGLINYIQWYYCSSTKPIVFILMCFWLLFLFGF” the value was 40400.
Consider “NVRYITNLSFTSDSVYKFLLFYPLFLIMTEPIIQLLGIYLAYIYGLIYLILTS”, for which the “transcriptional activation domain activity” value was 55800.
For “NVSDAPRIEPLPSLNDDDIEKILQPNDIFTTDRTDASTTSSTAIEDIINPSLD” the value was 61300.
Take “NVSPGTTDAGPWMRAIEELAGTGVYEHLGYGWKGWLFWLRDRSFCNMLMTGIW”: the “transcriptional activation domain activity” value was found to be 54200.
For “NWHHSIQVPYSFVANYDHPVCHMLHRWLPLYIPAVALRMHILTYLLLVAFFSL” the value was 57700.
Next, “NWNKYNWLIIAILSNFTSWFFHVWHHKLYSAFHDTSRIKNWNLFKTIQFWLFI”: 45300.
Turning to “NWYFLGTTMYFLYGESVIYYFKHIVLVDKVLLPFATHHRFISFMLYVIGFVFF”, the “transcriptional activation domain activity” value was 59100.
For “NWYKHINWLNTFFVVIMPMLGFIAAYWVPLHRYTALFAIFYYVHCGLGITAGY” the value was 68500; for “NWYWLASTMYFLYGESVIYYFKHIVLVDKVLLPLATHHRFISFVLYVIGFVFF”, 74800.
Next, “NWYWLATTMYFLYGESVVYYLKHIVLVDKVLLPLATHHRFISFILYVFGFVFF”: 46100.
Next, “NWYWLATTMYFLYGETVIYYFKHIVLVDKVLLPLATHHRFISFILYVFGFVFF”: 58300; “NYVMLCSVYTTVHIHKHGRDAWKLMIRERSWKYILFAMADLQGNLFVLYAFRN”: 59300; “PAAAAQAPPAAGGKKEEAAAAEVPQAEAAAEGAGSPEGEGKDAQAEAAAPAEG”: 16800.
As for “PAAATPAVSIGLIYLIIMAFFSFSFFLPIHMKYIQPQGHPPLHFWQLIIWRWL”, the “transcriptional activation domain activity” value was 52700.
Next, “PAADKSDAPRKPVSISIGGGAKKAEEAKPEPAKAASEGPAPAGGVAAVKAAAA”: 39300; “PAAEEVAAAPAHEEPALPKHEELEIEEADEPVHRAAPAERATAAPAAAPVKAP”: 29700; “PAAGGFGATSTPAPAAGGFGGFGATAAAAKPAVGGFGGLGGGASAAPATTLTS”: 23300.
Next, “PAANNPTGTLSSDELTFTHDLIEKVFNCNDKLSDNYNTQILSNTEHPLLTSYK”: 73500; “PAAQFLTEKRDRGGGGKGGEEGGGGSGKKVYKGAAMPNRYGIRPGHRWDGVDR”: 28200.
For “PAASGSDDDEPIAAKKPSAPRKRKAKVESDSDDEKPIAKKLAAKKPRASKVKA” the value was 14100; for “PAASTTHATAAPPAAPSPPSQTTPSAPATAASAPRTSPRPCASSCTSSATSRS”, 31600.
In the case of “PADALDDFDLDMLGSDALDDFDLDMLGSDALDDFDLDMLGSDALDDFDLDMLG”, the “transcriptional activation domain activity” value was 152000.
For “PADDPQPAPATPKRRGRPPKNPKPAEEPKPAEEDPQPVPATTPKKRGRPPKAS” the value was 26100.
Next, “PAEAPAAEPAAATEAPAETKDEKKEEKKEEKKEKKDEKKTEKSAKVGRRLSAR”: 45100; “PAEATVAITNVLYVVQKYYPGSHNLITLLLAIRCVMFTVFRFVAAPLCVTHAL”: 46700; “PAEGAEDAGEVKKKHRKRRRKRRGDAKDAAAEGGDEPENEDGEVGEGDNAAVS”: 9150.
With “PAEGEAAAAPAAEESAAPAARTGSSSSSSSNEEKKKKAAKSKSRSVSRGKRTS”, the “transcriptional activation domain activity” value was 23200.
Next, “PAEVKLIWTRPVTLTKVIFVFVRYSIALCQVTAVYVLLIVRVYTLWDHRRAIL”: 70300; “PAGDNKAPRKEGARANNRPRDNDAPRGPRYDRTPRDGDAASRAPRGARAPRGA”: 41700; “PAHSLLELIQLMKRKAFVCWYLFTIVIVLLLLLWIFLSVNYFHCIKPINFNTD”: 34800.
With “PAHVIFDVVIVCAGYFAREAFEEVVRMTTMCAVGPVFVVQALVRAGKVCTGIG”, the “transcriptional activation domain activity” value stood at 76300.
For “PANSSFVYVPMGWTLEVRNDGNPAIYAALLVRALLSRRVCRVGLLKHNTILVH”, the “transcriptional activation domain activity” value was 51300.
Next, “PAPAAAAASSSTATEKASGEQQPRESKRNPRHRNKRGRDNKDKDGKEGAGGKS”: 28100; “PAPAAERREFEEELEARAPGGRGGFRGPRGGPRGPAPAPAPPAAERREFIEDL”: 28600; “PAPAAKKEEKPAAATAEAPKEEAAAAVAAEEPKETKEEEKKEEAKEEKKEEAK”: 15800.
For “PAPAPAPAPRKGRSKKPVASPSASPVLAPAPAPAIALRKGRSKKPVASPSASP” the value was 36100.
For “PAPAPEAPKEEEAAAEPAAEPPKTEEAPAAEPVKEPEQAEPTPAADAPADAPA” the value was 18900; for “PAPAPMGRRTFAVDVDESAHSLAKKVKAARVRGYNYIIVVGERDAERGTAAVQ”, 44800; for “PAPKKAAAPAKKDALKAKKEESSSSSSDSEDEKPAPKKAAASAAKKVVAKAQK”, 21000.
With “PAPKKAPAKPRGRKPKPTADSDNQEVEAEAKPKSARGKKRTVAEKAAEEGAQP”, the “transcriptional activation domain activity” value was below 6570.
Next, “PAPKKRAPRKRKANAATVEGEAEDNEAEGAAAAAPPKKRARTRKAAAAAAEPS”: 41700; “PAPKRRGRPSKERVEEQQASDDETAQSSPKRRGRLPRQAASASASASAPVAAK”: 44100.
For “PAPSAAPAPAKEEDDDDEKEEAGGKADAKKKKKKKGKKDDEPAPAAAPAAAGK” the value was 29400; for “PAPTGDSPKKEKKRKRESAVAEDAPAAAEAEEADEPEKKKKKKKKHAEAEGAN”, 23700.
For “PARAHGNRDDERGGGVRGGVPADARATLARRVQPHPLARARARVCAGAAVRGE” the value was 48600.
“PARGNKDVFFIMFHPSEEFLFNILSLWLRACNPNCRIFHSHEAGSWKQYQKET”: the “transcriptional activation domain activity” value worked out at 45000.
Next, “PASNGHAEPETKPEPEAAPEPVEEKAATPAPATPAQPSPAPTPAPAAAAPSPA”: 10200.
For “PASPPIDRMERLHIRRTSPSPQGNYDEIRIDRARRISSSPPRRYEEVRVRHVS” the value was 26700.
In the case of “PASRGYDRDRDYRRSPSPRERRERDRSRDRDYDRPRSPAVRATLSSSPAPAAL”, the “transcriptional activation domain activity” value came to 22600.
Next, “PATTSPAPRGLTASGQPRKKPGPKPKLKDPNAPEPEKKARKARKVVEAKDPAV”: below 6570.
Consider “PAVRVLPCNHGPGGDLCIICRTPLFQLTLFKYLMTKMCHVRTWLMFGILDLTF”, for which the “transcriptional activation domain activity” value is 47700.
Next, “PAYEMCTYVWGFRGACLGLLWLIWFVVLYFVLRIRNIHSSFNERIESIIICFL”: 48800; “PAYKLLVAAIWSLEIVDQAFIGHCVYYYTISNYMSPQVLLFGDVIWTLIIQLV”: 43000.
In the case of “PCKCHTKRKSSRKSKGGSCHRRANDEAAHVNGLGIADLDVLLGLNGRSSDVDM”, the “transcriptional activation domain activity” value came to 44000.
With “PCMLRLLIWIAFKLVPENSSIREPLNFLLDHPRRCYTLLFPSGPTWTLFAFLV”, the “transcriptional activation domain activity” value was 60500.
For “PCPETSTPPPPPPKPTTAYPPPKSSEAPPPPPPKPTTAYPPPPKSSEAPPPPP” the value was 47900; for “PCSHTILNYGMTLSVSLVVVFRVSHMSFLSSSELSFLRGYHMMLASAFFLFVF”, 36600; for “PDDHKLLKALVFFLWVFDGLHIALICHAFYLITVTNFGNVLALLTIPRTLPIA”, 58400.
For “PDEDEVVENAEKPKRRRRAKPTEEEQNEEQQNEEDAVENAGKKKRGKRTKPTE” the value was 39900; for “PDELVKSASRLEIDDPSPVTADGAKKSKNQLKKEQKARQLQLQRSLGPASGAP”, below 6570.
For “PDEVASEASQPAEPAAASRAESPAAASVYEEAREPQEVQEERVASPVVAATPA” the value was 48300.
As to “PDFYPLFYSRLIPLSVISFLVYTALFFLVFWPQYLFLVIFHGWGAWPTAIILF”, the “transcriptional activation domain activity” value is 52600.
For the sequence “PDGSAITGSAVTKRKQSKSRNGCITCKAKRLKCDETKPSCQQCAKRSVTCGGY”, the “transcriptional activation domain activity” value was found to be 28100.
With “PDHIHHHSNNMNNEDNDNNNGSNNKVSNDSKLDFVTDDLEYHLANTHPDDTND”, the “transcriptional activation domain activity” value came to 47000.
Next, “PDIKKRPRKKSRRASAEGSEIGTESGGSDDGRQESAQRRKVERKERAGSSKEV”: 47100.
For “PDISAYDDERLKEGRLIAEFILNRTQYAPDETSKNDRVSDSEVPWMDFPSELN” the value was 37600.
In the case of “PDLSIYMVDAFVHVLITAGLRDSAAVLHERIMSEFLDRILLILRAAVRLNKII”, the “transcriptional activation domain activity” value turned out to be 62400.
Next, “PDRLDGRCVPDLSFFSVGDFTPISLVFFLSFPLLLFFFSFFFFFFFFFFFFFF”: 37700.
